In publication PMC5031503:
Where a chain is given by its changes, count along the chain named. Names and notes keep the numbering of the source.

B1: GFP-Lpd (Lamellipodin, wild type), Q70E73 Y366F; Y426F; Y456F; Y466F; Y481F; Y510F (protein)
chain: MEQLSDEEIDHGAEEDSDKEDQDLDKMFGAWLGELDKLTQSLDSDKPMEPVKRSPLRQETNMANFSYRFSIYNLNEALNQGETVDLDALMADLCSIEQELSSIGSGNSKRQITETKATQKLPVSRHTLKHGTLKGLSSSSNRIAKPSHASYSLDDVTAQLEQASLSMDEAAQQSVLEDTKPLVTNQHRRTASAGTVSDAEVHSISNSSHSSITSAASSMDSLDIDKVTRPQELDLTHQGQPITEEEQAAKLKAEKIRVALEKIKEAQVKKLVIRVHMSDDSSKTMMVDERQTVRQVLDNLMDKSHCGYSLDWSLVETVSELQMERIFEDHENLVENLLNWTRDSQNKLIFMERIEKYALFKNPQNFLLGKKETAEMADRNKEVLLEECFCGSSVTVPEIEGVLWLKDDGKKSWKKRYFLLRASGIFYVPKGKAKVSRDLVCFLQLDHVNVYYGQDFRNKYKAPTDFCLVLKHPQIQKKSQFIKYLCCDDVRTLHQWVNGIRIAKYGKQLFMNYQEALKRTESAYDWTSLSSSSIKSGSSSSSIPESQSNHSNQSDSGVSDTQPAGHVRSQSIVSSVFSEAWKRGTQLEESSKARMESMNRPYTSLVPPLSPQPKIVTPYTASQPSPPLPPPPPPPPPPPPPPPPPPPPLPSQSAPSAGSAAPMFVKYSTITRLQNASQHSGALFKPPTPPVMQSQSVKPQILVPPNGVVPPPPPPPPPPTPGSAMAQLKPAPCAPSLPQFSAPPPPLKIHQVQHITQVAPPTPPPPPPIPAPLPPQAPPKPLVTIPAPTSTKTVAPVVTQAAPPTPTPPVPPAKKQPAFPASYIPPSPPTPPVPVPPPTLPKQQSFCAKPPPSPLSPVPSVVKQIASQFPPPPTPPAMESQPLKPVPANVAPQSPPAVKAKPKWQPSSIPVPSPDFPPPPPESSLVFPPPPPSPVPAPPPPPPPTASPTPDKSGSPGKKTSKTSSPGGKKPPPTPQRNSSIKSSSGAEHPEPKRPSVDSLVSKFTPPAESGSPSKETLPPPAAPPKPGKLNLSGVNLPGVLQQGCVSAKAPVLSGRGKDSVVEFPSPPSDSDFPPPPPETELPLPPIEIPAVFSGNTSPKVAVVNPQPQQWSKMSVKKAPPPTRPKRNDSTRLTQAEISEQPTMATVVPQVPTSPKSSLSVQPGFLADLNRTLQRKSITRHGSLSSRMSRAEPTATMDDMALPPPPPELLSDQQKAGYGGSHISGYATLRRGPPPAPPKRDQNTKLSRDW
B2: GFP-Lpd (Lamellipodin, wild type), Q70E73 Y366F; Y426F; Y456F; Y466F; Y481F; Y510F; Y513F; Y1226F (protein)
chain: B1 chain with Y513F, Y1226F
B3: GFP-Lpd (Lamellipodin, wild type), Q70E73 Y426F; Y456F; Y513F; Y1226F (protein)
chain: B1 chain with F366Y, F466Y, F481Y, F510Y, Y513F, Y1226F

biological target: Myc-tagged Scar/WAVE complex (Myc-Pir121, Myc-Nap1, Myc-Abi1d, Myc-WAVE2), Q96F07;Q9Y2A7;Q9Y6W5; experiment: co-immunoprecipitation, quantified western blot band intensities; details: chain shown with the change; HEK293FT cells; n=4; Scar/WAVE2 normalized against the immunoprecipitated Lpd; parent: est. 100; read off a plot
Sequence (chain, as listed by the source, chain 1 of 3): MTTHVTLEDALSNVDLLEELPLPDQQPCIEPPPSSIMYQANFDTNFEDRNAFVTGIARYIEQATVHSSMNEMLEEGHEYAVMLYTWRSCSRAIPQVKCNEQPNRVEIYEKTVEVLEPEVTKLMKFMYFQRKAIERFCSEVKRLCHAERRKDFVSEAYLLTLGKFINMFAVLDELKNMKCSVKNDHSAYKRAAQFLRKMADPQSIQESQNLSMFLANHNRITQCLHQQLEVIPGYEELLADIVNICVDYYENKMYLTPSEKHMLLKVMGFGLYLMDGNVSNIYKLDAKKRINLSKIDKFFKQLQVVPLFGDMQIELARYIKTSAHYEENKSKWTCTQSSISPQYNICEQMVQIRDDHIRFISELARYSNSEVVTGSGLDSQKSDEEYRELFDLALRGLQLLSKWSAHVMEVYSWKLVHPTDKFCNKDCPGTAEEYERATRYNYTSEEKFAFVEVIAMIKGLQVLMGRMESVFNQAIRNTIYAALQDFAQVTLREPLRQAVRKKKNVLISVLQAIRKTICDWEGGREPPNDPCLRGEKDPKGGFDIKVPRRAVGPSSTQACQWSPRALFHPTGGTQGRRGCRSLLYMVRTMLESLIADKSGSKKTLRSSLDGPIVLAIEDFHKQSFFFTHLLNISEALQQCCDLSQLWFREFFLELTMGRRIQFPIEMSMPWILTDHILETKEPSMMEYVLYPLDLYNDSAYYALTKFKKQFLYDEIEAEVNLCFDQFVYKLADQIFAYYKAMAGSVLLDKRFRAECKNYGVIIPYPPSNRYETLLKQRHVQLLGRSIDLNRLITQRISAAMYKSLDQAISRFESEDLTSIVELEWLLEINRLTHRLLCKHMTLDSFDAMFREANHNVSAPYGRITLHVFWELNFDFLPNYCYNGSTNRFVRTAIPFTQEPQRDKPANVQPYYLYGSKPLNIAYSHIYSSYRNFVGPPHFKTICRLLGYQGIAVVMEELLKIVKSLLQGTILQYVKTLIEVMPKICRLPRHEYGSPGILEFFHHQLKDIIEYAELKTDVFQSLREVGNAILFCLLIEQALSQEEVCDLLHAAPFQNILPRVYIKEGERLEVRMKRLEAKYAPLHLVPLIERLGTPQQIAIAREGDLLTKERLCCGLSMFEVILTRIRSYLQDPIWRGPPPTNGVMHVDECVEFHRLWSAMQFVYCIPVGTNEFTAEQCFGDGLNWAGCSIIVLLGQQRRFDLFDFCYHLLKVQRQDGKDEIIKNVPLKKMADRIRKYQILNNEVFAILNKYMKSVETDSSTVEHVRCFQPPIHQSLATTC
Sequence (chain, as listed by the source, chain 2 of 3): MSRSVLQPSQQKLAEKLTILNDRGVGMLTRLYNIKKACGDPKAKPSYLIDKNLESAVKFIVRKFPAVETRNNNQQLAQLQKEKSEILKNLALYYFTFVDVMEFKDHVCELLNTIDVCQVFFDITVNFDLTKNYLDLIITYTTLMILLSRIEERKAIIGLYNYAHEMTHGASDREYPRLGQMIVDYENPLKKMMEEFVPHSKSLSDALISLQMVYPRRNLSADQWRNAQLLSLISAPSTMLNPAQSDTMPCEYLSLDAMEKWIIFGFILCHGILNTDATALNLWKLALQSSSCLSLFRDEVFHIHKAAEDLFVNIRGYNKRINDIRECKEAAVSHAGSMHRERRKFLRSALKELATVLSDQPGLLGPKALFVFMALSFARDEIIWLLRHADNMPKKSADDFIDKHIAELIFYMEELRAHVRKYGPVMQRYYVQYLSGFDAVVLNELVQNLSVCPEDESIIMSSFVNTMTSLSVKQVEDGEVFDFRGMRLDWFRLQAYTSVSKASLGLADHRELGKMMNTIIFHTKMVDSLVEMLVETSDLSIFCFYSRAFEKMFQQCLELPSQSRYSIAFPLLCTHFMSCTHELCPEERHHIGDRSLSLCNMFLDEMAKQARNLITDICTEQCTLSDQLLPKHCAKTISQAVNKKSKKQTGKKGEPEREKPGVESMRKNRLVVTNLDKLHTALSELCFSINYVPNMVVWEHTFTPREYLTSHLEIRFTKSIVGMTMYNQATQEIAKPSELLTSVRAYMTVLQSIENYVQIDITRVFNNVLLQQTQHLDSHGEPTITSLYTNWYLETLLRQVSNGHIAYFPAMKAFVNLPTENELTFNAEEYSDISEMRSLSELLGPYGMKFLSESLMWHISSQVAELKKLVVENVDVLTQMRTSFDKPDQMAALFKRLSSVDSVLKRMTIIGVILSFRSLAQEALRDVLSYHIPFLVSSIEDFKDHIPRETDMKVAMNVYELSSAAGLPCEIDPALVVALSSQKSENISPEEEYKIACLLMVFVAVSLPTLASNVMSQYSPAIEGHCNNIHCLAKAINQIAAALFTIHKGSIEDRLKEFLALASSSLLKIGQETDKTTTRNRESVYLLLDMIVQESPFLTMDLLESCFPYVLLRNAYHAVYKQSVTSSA
Sequence (chain, as listed by the source, chain 3 of 3): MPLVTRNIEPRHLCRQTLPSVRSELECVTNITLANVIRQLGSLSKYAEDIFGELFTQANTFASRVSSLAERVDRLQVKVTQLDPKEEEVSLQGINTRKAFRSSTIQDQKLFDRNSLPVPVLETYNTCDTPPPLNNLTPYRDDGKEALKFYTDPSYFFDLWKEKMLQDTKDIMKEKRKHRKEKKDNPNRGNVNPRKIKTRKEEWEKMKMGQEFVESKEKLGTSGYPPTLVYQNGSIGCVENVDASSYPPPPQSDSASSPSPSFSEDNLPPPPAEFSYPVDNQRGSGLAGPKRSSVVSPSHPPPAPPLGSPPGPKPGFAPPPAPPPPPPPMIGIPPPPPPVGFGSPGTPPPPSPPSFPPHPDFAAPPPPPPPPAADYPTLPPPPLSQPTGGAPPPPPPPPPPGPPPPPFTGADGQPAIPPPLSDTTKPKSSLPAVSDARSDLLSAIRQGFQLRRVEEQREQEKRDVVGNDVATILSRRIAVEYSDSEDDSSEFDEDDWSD

Row | percent of parent (% co-IP Lpd-WAVE2) | Binder
1 | 39 | B1
2 | 31 | B2
3 | 41 | B3
